Starred links: 1 amine or outer side, 2 acyl side, 3 side chain; linkers in the order of their positions; H or OH if unused. Non-standard residues stand in square brackets, D forms with d. No end group written: not given here. Phe(4-(5-CO2H-2-pyrimidyl)) = N[C@@H](Cc1ccc(-c2ncc(C(=O)O)cn2)cc1)C(=O)O; Phe(4-(4-Ac-piperazinyl)) = CC(=O)N1CCN(c2ccc(C[C@H](N)C(=O)O)cc2)CC1; dPro(4R-(4-pyridylmethyl)) = O=C(O)[C@H]1C[C@@H](Cc2ccncc2)CN1; Ala(piperidin-4-yl) = O=C([C@H](CC1CCN([*:3])CC1)N[*:1])[*:2]; Trp(βS-Me,4-F) = C[C@@H](c1c[nH]c2cccc(F)c12)[C@H](N)C(=O)O; Bip(4'-COOH) = N[C@@H](Cc1ccc(-c2ccc(C(=O)O)cc2)cc1)C(=O)O; Ala(1-bicyclo(1.1.1)pentyl) = N[C@@H](CC12CC(C1)C2)C(=O)O; dPro(4R-Bzl(4-F)) = O=C(O)[C@H]1C[C@@H](Cc2ccc(F)cc2)CN1; Ala(morpholin-4-yl) = N[C@@H](CN1CCOCC1)C(=O)O; Ala(piperazin-1-yl) = N[C@@H](CN1CCNCC1)C(=O)O; Ala(pyrimidin-5-yl) = N[C@@H](Cc1cncnc1)C(=O)O; Phe(4-COOH) = N[C@@H](Cc1ccc(C(=O)O)cc1)C(=O)O; Pro(cis-4-F) = O=C(O)[C@@H]1C[C@H](F)CN1; cisHyp = O=C(O)[C@@H]1C[C@H](O)CN1; d(αMeD) = C[C@@](N)(CC(=O)O)C(=O)O; 4Pal = N[C@@H](Cc1ccncc1)C(=O)O; aThr = C[C@H](O)[C@H](N)C(=O)O; αMeD = C[C@](N)(CC(=O)O)C(=O)O; d(αMeS) = C[C@@](N)(CO)C(=O)O; αMeK = C[C@](N)(CCCCN)C(=O)O; Dab = NCC[C@H](N)C(=O)O; Aib = CC(C)(N)C(=O)O
B1: SEQ ID NO: 174 (peptide)
peptide: cyclo([Bip(4'-COOH)][Ala(1-bicyclo(1.1.1)pentyl)][Phe(4-COOH)]G[Pro(cis-4-F)][Trp(βS-Me,4-F)][Aib]SW[αMeK][Ala(morpholin-4-yl)]Q[Dab]G[dPro(4R-Bzl(4-F))])
modifications: ring closure inferred; not fully specified (bridges); printed as Bip4CO2H-AlaPent-Phe4COOH-G-Proc4F-SbMeW4F-Aib-S-W-aMeK-AlaMph-Q-Dab-G-dProc4Bn4F, cyclic (macrolactam)
B2: SEQ ID NO: 183 (peptide)
peptide: [Phe(4-(4-Ac-piperazinyl))][4Pal][Phe(4-COOH)]G[Pro(cis-4-F)][Trp(βS-Me,4-F)][Aib]SW[Aib][Ala(pyrimidin-5-yl)]Q[Dab]G[dPro(4R-Bzl(4-F))]
modifications: lactam (positions not given here); also: macrolactam ring, closure sites not given here
B3: SEQ ID NO: 176 (peptide)
peptide: cyclo([Bip(4'-COOH)][Ala(1-bicyclo(1.1.1)pentyl)][Phe(4-COOH)]G[Pro(cis-4-F)][Trp(βS-Me,4-F)][Aib]EW[Aib][Ala(piperidin-4-yl)]QSG[dPro(4R-(4-pyridylmethyl))])
modifications: ring closure inferred; not fully specified (bridges); printed as Bip4CO2H-AlaPent-Phe4COOH-G-Proc4F-SbMeW4F-Aib-E-W-Aib-AlaPip4-Q-S-G-dProc4CH24Pal, cyclic (macrolactam)
B4: SEQ ID NO: 173 (peptide)
peptide: cyclo([Bip(4'-COOH)][Ala(1-bicyclo(1.1.1)pentyl)][Phe(4-COOH)]G[Pro(cis-4-F)][Trp(βS-Me,4-F)][Aib]SW[αMeK][Ala(morpholin-4-yl)]QSG[dPro(4R-Bzl(4-F))])
modifications: ring closure inferred; not fully specified (bridges); printed as Bip4CO2H-AlaPent-Phe4COOH-G-Proc4F-SbMeW4F-Aib-S-W-aMeK-AlaMph-Q-S-G-dProc4Bn4F, cyclic (macrolactam)
B5: SEQ ID NO: 177 (peptide)
peptide: cyclo([Bip(4'-COOH)][Ala(1-bicyclo(1.1.1)pentyl)][Phe(4-COOH)]G[Pro(cis-4-F)][Trp(βS-Me,4-F)][Aib]EW[d(αMeS)][Ala(morpholin-4-yl)]QSG[dPro(4R-(4-pyridylmethyl))])
modifications: ring closure inferred; not fully specified (bridges); printed as Bip4CO2H-AlaPent-Phe4COOH-G-Proc4F-SbMeW4F-Aib-E-W-daMeS-AlaMph-Q-S-G-dProc4CH24Pal, cyclic (macrolactam)
B6: SEQ ID NO: 175 (peptide)
peptide: cyclo([Bip(4'-COOH)][Ala(1-bicyclo(1.1.1)pentyl)][Phe(4-COOH)]G[Pro(cis-4-F)][Trp(βS-Me,4-F)][Aib]SW[αMeK][Ala(piperazin-1-yl)]QSG[dPro(4R-Bzl(4-F))])
modifications: ring closure inferred; not fully specified (bridges); printed as Bip4CO2H-AlaPent-Phe4COOH-G-Proc4F-SbMeW4F-Aib-S-W-aMeK-AlaPiperaz-Q-S-G-dProc4Bn4F, cyclic (macrolactam)
B7: SEQ ID NO: 185 (peptide)
peptide: [Phe(4-(5-CO2H-2-pyrimidyl))][Ala(1-bicyclo(1.1.1)pentyl)][Phe(4-COOH)]G[cisHyp][Trp(βS-Me,4-F)][Aib]SW[Aib][Ala(pyrimidin-5-yl)]Q[Dab]G[dPro(4R-(4-pyridylmethyl))]
modifications: lactam (positions not given here); also: macrolactam ring, closure sites not given here
B8: SEQ ID NO: 180 (peptide)
peptide: [Bip(4'-COOH)][Ala(1-bicyclo(1.1.1)pentyl)][Phe(4-COOH)]G[Pro(cis-4-F)][Trp(βS-Me,4-F)][Aib]SW[Aib][Ala(piperidin-4-yl)]QSG[dPro(4R-(4-pyridylmethyl))]
modifications: lactam (positions not given here); also: macrolactam ring, closure sites not given here
B9: SEQ ID NO: 184 (peptide)
peptide: [Phe(4-(4-Ac-piperazinyl))][4Pal][Phe(4-COOH)]G[Pro(cis-4-F)][Trp(βS-Me,4-F)][Aib]SW[αMeD][Ala(pyrimidin-5-yl)]Q[Dab]G[dPro(4R-Bzl(4-F))]
modifications: lactam (positions not given here); also: macrolactam ring, closure sites not given here
B10: SEQ ID NO: 182 (peptide)
peptide: [Bip(4'-COOH)][Ala(1-bicyclo(1.1.1)pentyl)][Phe(4-COOH)]G[cisHyp][Trp(βS-Me,4-F)][Aib][aThr]W[d(αMeD)][Ala(pyrimidin-5-yl)]Q[Dab]G[dPro(4R-(4-pyridylmethyl))]
modifications: lactam (positions not given here); also: macrolactam ring, closure sites not given here
B11: SEQ ID NO: 172 (peptide)
peptide: cyclo([Bip(4'-COOH)][Ala(1-bicyclo(1.1.1)pentyl)][Phe(4-COOH)]G[Pro(cis-4-F)][Trp(βS-Me,4-F)][Aib]SW[d(αMeS)][Ala(piperidin-4-yl)]Q[Dab]G[dPro(4R-Bzl(4-F))])
modifications: ring closure inferred; not fully specified (bridges); printed as Bip4CO2H-AlaPent-Phe4COOH-G-Proc4F-SbMeW4F-Aib-S-W-daMeS-AlaPip4-Q-Dab-G-dProc4Bn4F, cyclic (macrolactam)
B12: SEQ ID NO: 178 (peptide)
peptide: cyclo([Bip(4'-COOH)][Ala(1-bicyclo(1.1.1)pentyl)][Phe(4-COOH)]G[Pro(cis-4-F)][Trp(βS-Me,4-F)][Aib]EW[d(αMeS)][Ala(piperidin-4-yl)]QSG[dPro(4R-(4-pyridylmethyl))])
modifications: ring closure inferred; not fully specified (bridges); printed as Bip4CO2H-AlaPent-Phe4COOH-G-Proc4F-SbMeW4F-Aib-E-W-daMeS-AlaPip4-Q-S-G-dProc4CH24Pal, cyclic (macrolactam)
B13: SEQ ID NO: 179 (peptide)
peptide: [Bip(4'-COOH)][Ala(1-bicyclo(1.1.1)pentyl)][Phe(4-COOH)]G[Pro(cis-4-F)][Trp(βS-Me,4-F)][Aib]SW[Aib][Ala(morpholin-4-yl)]QSG[dPro(4R-(4-pyridylmethyl))]
modifications: lactam (positions not given here); also: macrolactam ring, closure sites not given here
B14: SEQ ID NO: 181 (peptide)
peptide: [Bip(4'-COOH)][Ala(1-bicyclo(1.1.1)pentyl)][Phe(4-COOH)]G[Pro(cis-4-F)][Trp(βS-Me,4-F)][Aib]SW[d(αMeS)][Ala(piperidin-4-yl)]QSG[dPro(4R-(4-pyridylmethyl))]
modifications: lactam (positions not given here); also: macrolactam ring, closure sites not given here

Biological target: Recombinant human IL-1β (BioLegend 579404) (human, UniProt P01584 117-269)
Test: cell-based or functional assay

Binder | MRC5 IC50 [nM]
B1 | 0.025
cyclo([Bip(4'-COOH)][Ala(1-bicyclo(1.1.1)pentyl)][Phe(4-COOH)]G[Pro(cis-4-F)][Trp(βS-Me,4-F)][Aib]SW[Aib][Ala(morpholin-4-yl)]Q[Dab]G[dPro(4R-Bzl(4-F))]) (ring closure inferred) [SEQ ID NO: 167] | 0.013
cyclo([Bip(4'-COOH)][Ala(1-bicyclo(1.1.1)pentyl)][Phe(4-COOH)]G[Pro(cis-4-F)][Trp(βS-Me,4-F)][Aib]SW[Aib][Ala(piperidin-4-yl)]Q[Dab]G[dPro(4R-Bzl(4-F))]) (ring closure inferred) [SEQ ID NO: 169] | 0.019
B2 | 0.025
B3 | 0.036
cyclo([Bip(4'-COOH)][Ala(1-bicyclo(1.1.1)pentyl)][Phe(4-COOH)]G[Pro(cis-4-F)][Trp(βS-Me,4-F)][Aib]SW[d(αMeS)][Ala(piperazin-1-yl)]Q[Dab]G[dPro(4R-Bzl(4-F))]) (ring closure inferred) [SEQ ID NO: 171] | 0.016
B4 | 0.037
cyclo([Bip(4'-COOH)][Ala(1-bicyclo(1.1.1)pentyl)][Phe(4-COOH)]G[Pro(cis-4-F)][Trp(βS-Me,4-F)][Aib]SW[d(αMeS)][Ala(morpholin-4-yl)]Q[Dab]G[dPro(4R-Bzl(4-F))]) (ring closure inferred) [SEQ ID NO: 170] | 0.015
B5 | 0.031
B6 | 0.037
cyclo([Bip(4'-COOH)][Ala(1-bicyclo(1.1.1)pentyl)][Phe(4-COOH)]G[Pro(cis-4-F)][Trp(βS-Me,4-F)][Aib]SW[Aib][Ala(piperazin-1-yl)]Q[Dab]G[dPro(4R-Bzl(4-F))]) (ring closure inferred) [SEQ ID NO: 168] | 0.018
B7 | 0.043
cyclo([Bip(4'-COOH)][Ala(1-bicyclo(1.1.1)pentyl)][Phe(4-COOH)]G[Pro(cis-4-F)][Trp(βS-Me,4-F)][Aib]EW[αMeK][Ala(piperidin-4-yl)]Q[Dab]G[dPro(4R-Bzl(4-F))]) (ring closure inferred) [SEQ ID NO: 166] | 0.039
B8 | 0.027
B9 | 0.014
B10 | 0.049
B11 | 0.016
B12 | 0.041
B13 | 0.029
B14 | 0.021
